Reference: the Human Domainome abundance scans (Beltran et al. 2025)
± gives the uncertainty stated by the source.

B1: Zinc finger homeobox protein 3, residues 2643 to 2698; numbered along this chain, Q15911 (parent)
chain: RLRTTITPEQLEILYQKYLLDSNPTRKMLDHIAHEVGLKKRVVQVWFQNTRARERK

Variants of: B1
Assay: abundance fitness (aPCA) (normalised: wild type 0, dead -1); higher = more abundant; growth selection in yeast, the domain comes from the species named
Settings: Homo sapiens

Going from E9D to E9F, the abundance fitness falls from -0.042 ± 0.092 to -0.495 ± 0.077.

E9L and E9V are within error of each other in abundance fitness: -0.31 ± 0.069 for the first, -0.246 ± 0.075 for the second.

First: E9M
Second: E9C
The abundance fitness of the first is higher: -0.272 ± 0.1 for the first, -0.712 ± 0.091 for the second.

First: I32G
Second: I32T
The abundance fitness of the first is lower: -0.77 ± 0.094 for the first, -0.274 ± 0.1 for the second.

Compared with I32D, N23L is higher in abundance fitness: -1.02 ± 0.18 for the first, -0.389 ± 0.12 for the second.

First: N23I
Second: R51C
The abundance fitness of the first is lower: -0.414 ± 0.23 for the first, -0.044 ± 0.11 for the second.

Compared with R51V, R51L is higher in abundance fitness: -0.155 ± 0.076 for the first, 0.056 ± 0.1 for the second.

Compared with R51K, R51I is lower in abundance fitness: 0.112 ± 0.11 for the first, -0.286 ± 0.16 for the second.

First: S22R
Second: S22A
The abundance fitness of the first is lower: -0.526 ± 0.082 for the first, -0.003 ± 0.086 for the second.

Compared with S22N, S22I is lower in abundance fitness: -0.273 ± 0.12 for the first, -0.589 ± 0.15 for the second.

Compared with S22L, S22T is higher in abundance fitness: -0.643 ± 0.1 for the first, -0.315 ± 0.13 for the second.

E54I and E54C are within error of each other in abundance fitness: -0.197 ± 0.1 for the first, -0.306 ± 0.1 for the second.

E54H and E54P are within error of each other in abundance fitness: -0.229 ± 0.084 for the first, -0.38 ± 0.076 for the second.

E54W and E54R are within error of each other in abundance fitness: -0.512 ± 0.12 for the first, -0.701 ± 0.09 for the second.

Compared with E54V, R53A is higher in abundance fitness: -0.39 ± 0.079 for the first, 0.092 ± 0.076 for the second.

R53F and R53N are within error of each other in abundance fitness: 0.239 ± 0.24 for the first, 0.172 ± 0.15 for the second.

Going from R53H to R53T, the abundance fitness rises from -0.258 ± 0.15 to 0.029 ± 0.11.

Going from Q48R to Q48P, the abundance fitness falls from -0.204 ± 0.078 to -0.615 ± 0.15.

Q48W and Q48Y are within error of each other in abundance fitness: -0.217 ± 0.091 for the first, -0.089 ± 0.21 for the second.

Compared with Q48H, Q48E is higher in abundance fitness: -0.108 ± 0.2 for the first, 0.404 ± 0.12 for the second.

Compared with P8I, P8C is lower in abundance fitness: 0.993 ± 0.19 for the first, 0.475 ± 0.15 for the second.

Compared with P8F, P8Y is lower in abundance fitness: 0.584 ± 0.2 for the first, 0.116 ± 0.14 for the second.

Compared with P8M, P8K is lower in abundance fitness: 0.57 ± 0.15 for the first, -0.352 ± 0.23 for the second.

Compared with P8L, P8Q is lower in abundance fitness: 0.991 ± 0.1 for the first, -0.401 ± 0.21 for the second.

I13S and I13H are within error of each other in abundance fitness: -0.184 ± 0.084 for the first, 0.067 ± 0.18 for the second.

I13L and I13Q are within error of each other in abundance fitness: -0.084 ± 0.085 for the first, -0.095 ± 0.12 for the second.

Going from I13W to R55I, the abundance fitness rises from -0.172 ± 0.091 to 0.142 ± 0.18.

Compared with R55W, R55K is higher in abundance fitness: 0.017 ± 0.1 for the first, 0.496 ± 0.27 for the second.

First: R55P
Second: R55N
The abundance fitness of the first is lower: 0.105 ± 0.14 for the first, 0.462 ± 0.17 for the second.

R41A and R41Q are within error of each other in abundance fitness: 0.159 ± 0.11 for the first, 0.287 ± 0.15 for the second.

Compared with R41D, R41Y is lower in abundance fitness: 0.773 ± 0.18 for the first, -0.129 ± 0.24 for the second.

Going from R41V to R41C, the abundance fitness rises from 0.041 ± 0.093 to 0.256 ± 0.12.

R41P and D21I are within error of each other in abundance fitness: -0.144 ± 0.23 for the first, -0.533 ± 0.21 for the second.

Compared with D21L, D21Q is higher in abundance fitness: -0.553 ± 0.11 for the first, -0.255 ± 0.17 for the second.

L19H and L19A are within error of each other in abundance fitness: -0.14 ± 0.15 for the first, -0.075 ± 0.11 for the second.

L19P and L19F are within error of each other in abundance fitness: -0.535 ± 0.18 for the first, -0.36 ± 0.15 for the second.

L19R and L19D are within error of each other in abundance fitness: -0.087 ± 0.078 for the first, -0.211 ± 0.13 for the second.

Compared with L19E, R1G is higher in abundance fitness: -0.254 ± 0.14 for the first, 0.258 ± 0.11 for the second.

Going from R1A to T4C, the abundance fitness falls from 0.267 ± 0.21 to -0.56 ± 0.19.

T4A and T4S are within error of each other in abundance fitness: -0.193 ± 0.1 for the first, -0.144 ± 0.13 for the second.

T4V and T4I are within error of each other in abundance fitness: -0.106 ± 0.092 for the first, 0.048 ± 0.21 for the second.

T4P showed an abundance fitness of 0.149 ± 0.13.
